These results are taken from publication PMC2695768.

In the assay the target is influenza virus nucleoprotein (NP), A/Victoria/3/75, wild type (influenza A virus A/Victoria/3/75). The experiment in a line: cryo-EM structure.

What is called stoichiometry N is a count of units in the complex or per binding partner. Turning to “influenza virus nucleoprotein (NP), A/Victoria/3/75, wild type (natural protein)”, the stoichiometry N amounted to 9.
